Test results: patent US20160237160A1 (Bayer, published 2016)
Positions count from the first letter of the chain named. Numbers in names are those of the source. One block for each binder: values may come before it.

Legend:
[1] = biological target: T1, TWEAKR (TNFRSF12A, FN14), human, on tumor cell lines (human, UniProt Q9NP84 28-129); assay: cell-based or functional assay
[2] = biological target: T1, TWEAKR (TNFRSF12A, FN14), human, on …; assay: FACS, NCI-H322 cells, 10 ug/ml
Protocol: (§1) To determine the binding characteristics of the anti-TWEAKR antibodies on mouse and human cancer cell lines, binding was tested by flow cytometry to a panel of cell lines. […] Cells were suspended at approximately 10⁵ cells/well in FACS buffer (PBS without Ca/Mg, containing 3% FCS, Biochrom). Cells were centrifuged (250 g, 5 min, 4° C.) and supernatant discarded. Cells were resuspended in dilutions of the antibodies of interest (10 μg/ml in 80 μl if not indicated otherwise) in FACS buffer, and incubated on ice for 1 h. […] After incubation for 1 h on ice cells were again washed with cold FACS buffer, resuspended in 1000 FACS buffer and analyzed by flow cytometry using a FACS-Array (BD Biosciences). Results are calculated as Geo Mean of fluorescence detected by the antibody of interest subtracted by background fluorescence as measured by detection with the secondary antibody alone. Values are scored according to the following system: Geo Mean−Geo Mean of secondary antibody alone >10: +, >100: ++, >1000: +++, 10000: ++++, close to category border in ( ).

[3] = biological target: T1, TWEAKR (TNFRSF12A, FN14), human, on …; assay: cell-based or functional assay; remark: listed apart in the source
[4] = biological target: T1, TWEAKR (TNFRSF12A, FN14), human, on …; assay: FACS, WiDr cells, 10 ug/ml
Protocol: as §1

[5] = biological target: T2, TPP-2614 (TweakR-ECD-34-68-hIgGFc-His-D47A) (human); assay: ELISA, IgG coated 1 ug/ml, TWEAKR variant 250 ng/ml, anti-HIS HRP (FIG. 6C)
T2 construct: also called D47A TWEAKR mutein
Protocol: Antibodies were coated (1 μg/ml), TWEAKR variant was added at 250 ng/ml, detection via anti-HIS HRP. […] Antibodies were coated (1 μg/ml), TWEAKR variant was added 250 ng/ml, detection via anti-HIS HRP.

[6] = biological target: T1, TWEAKR (TNFRSF12A, FN14), human, on …; assay: cell-based or functional assay; remark: listed apart in the source
[7] = biological target: T3, TPP-2305 (hTNFRSF12Aaa28-80) (Human, UniProt Q9NP84 28-80); assay: SPR (Biacore T100), IgG captured, TPP-2305 injected, 1:1 model
T3 construct: monomeric extracellular domain, bought; also called purified recombinant human TWEAKR protein; soluble monomeric TWEAKR
Protocol: Binding affinities of anti-TWEAKR antibodies were determined by surface plasmon resonance analysis on a Biacore T100 instrument (GE Healthcare Biacore, Inc.). Antibodies were immobilized onto a CM5 sensor chip through an indirect capturing reagent, anti-human IgG(Fc). […] Anti-TWEAKR antibodies were injected at a concentration of 10 μg/ml at 10 μl/min for 10 sec.
Sensorgrams were generated after in-line reference cell correction followed by buffer sample subtraction. The dissociation equilibrium constant (KD) was calculated based on the ratio of association (kₒₙ) and dissociation rated (koff) constants, obtained by fitting sensorgrams with a first order 1:1 binding model.

[8] = biological target: T1, TWEAKR (TNFRSF12A, FN14), human, on …; assay: FACS, 786-O cells, 10 ug/ml
Protocol: as §1

[9] = biological target: T1, TWEAKR (TNFRSF12A, FN14), human, on …; assay: FACS, HT29 cells, 10 ug/ml
Protocol: as §1

[10] = biological target: T4, TPP-1777 (DOG-TNFRSF12Aaa28-80-hIgG1-Fc) (dog); assay: SPR, TWEAKR-Fc immobilized, IgG injected, bivalent analyte model (avidity mode);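 also: kd derived as the ratio of fitted dissociation to association rate constants, with sensorgrams corrected against a reference flow cell and a buffer blank before fitting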
T4 construct: bivalent antigen; also called dog TWEAKR Fc
Protocol: (§2) Sensorgrams were generated after in-line reference cell correction followed by buffer sample subtraction. The dissociation equilibrium constant (KD) was calculated based on the ratio of association (kₒₙ₁) and dissociation rated (koff1) constants, obtained by fitting sensorgrams with a bivalent analyte model using Biavaluation Software (version 4.0).

[11] = biological target: T5, TPP-1846 (MAC-TNFRSF12Aaa28-80-hIgG1-Fc) (macaca fascicularis); assay: as above
T5 construct: bivalent antigen; also called mac fasc TWEAKR Fc
Protocol: as §2

[12] = biological target: T6, TPP-1779 (RAT-TNFRSF12Aaa28-80-hIgG1-Fc) (rat); assay: as above
T6 construct: bivalent antigen; also called rat TWEAKR Fc
Protocol: as §2

[13] = biological target: T7, TPP-599 (HUMAN-TNFRSF12Aaa28-80-hIgG1-Fc) (human); assay: as above
T7 construct: dimeric; also called human TWEAKR Fc; TWEAKR-Fc
Protocol: as §2

[14] = biological target: T8, TPP-601 (MURINE-TNFRSF12Aaa28-80-hIgG1-Fc) (murine); assay: as above
T8 construct: dimeric; also called murine TWEAKR Fc
Protocol: as §2

[15] = biological target: T9, TPP-1778 (PIG-TNFRSF12Aaa28-80-hIgG1-Fc) (pig); assay: as above
T9 construct: bivalent antigen; also called pig TWEAKR Fc
Protocol: as §2

[16] = biological target: T1, TWEAKR (TNFRSF12A, FN14), human, on …; assay: FACS, A375 cells, 10 ug/ml
Protocol: as §1

[17] = biological target: T1, TWEAKR (TNFRSF12A, FN14), human, on …; assay: FACS, SKOV-3 cells, 10 ug/ml
Protocol: as §1

[18] = biological target: T10, TPP-2202 (TWEAKR-ECD-28-80-hIgGFc-His) (human); assay: ELISA, TPP-2202 coated at 1 µg/ml, biotinylated IgG at 0.08 µg/ml (open bar) and 0.3 µg/ml (filled bar), Streptavidin-HRP, Amplex Red
T10 construct: dimeric; also called TWEAKR-Fc fusion protein; full ectodomain 28-80
Protocol: (§3) Detection was done with Streptavidin-HRP and Amplex-Red substrate.
(§4) To analyze for binding, 1 μg/ml of the respective dimeric TWEAKR-Fc construct were coated and, 0.3 μg/ml and 0.08 μg/ml of biotinylated IgG were used as soluble binding partner. Detection was done with Streptavidin-HRP and Amplex-Red substrate.

[19] = biological target: T11, TPP-2203 (TWEAKR-ECD-34-68-hIgGFc-His) (human); assay: ELISA, TPP-2203 coated at 1 µg/ml, biotinylated IgG at 0.08 µg/ml (open bar) and 0.3 µg/ml (filled bar), Streptavidin-HRP, Amplex Red
T11 construct: dimeric; also called TWEAKR(34-68)-Fc fusion protein; truncated ectodomain 34-68
Protocol: as §3, §4

[20] = biological target: TPP-1990 (hTNFRSF12Aaa28-80-L65Q-hIgG1-Fc) (human); assay: ELISA, TWEAKR-Fc coated 62 ng/ml, biotin-IgG titrated; + means IC50 1 to 150 pM;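 also: biotinylated IgG binding to immobilized TWEAKR-Fc muteins, detected with Streptavidin-HRP and Amplex Red, IC50 derived from fitted dose-response curves of twofold serial dilutions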
Protocol: (§5) To collect dose-response data, the different TWEAKR-Fc muteins were coated with a low concentration (62 ng/ml) in a 384-well Maxisorb ELISA plate and a serial 2fold dilution of biotinylated IgG starting with a concentration of 100 nM was used as soluble binding partner. Detection was done with Streptavidin-HRP and Amplex Red.
(§6) The dose-response data were fitted and IC50s determined.

[21] = biological target: TPP-1987 (hTNFRSF12Aaa28-80-S40R-hIgG1-Fc) (human); assay: as above
Protocol: as §5, §6

[22] = biological target: T7, TPP-599 …; assay: as above
Protocol: as §5, §6

[23] = biological target: TPP-1989 (hTNFRSF12Aaa28-80-H60K-hIgG1-Fc) (human); assay: as above
Protocol: as §5, §6

[24] = biological target: TPP-1986 (hTNFRSF12Aaa28-80-T33Q-hIgG1-Fc) (human); assay: as above
Protocol: as §5, §6

[25] = biological target: TPP-1988 (hTNFRSF12Aaa28-80-M50A-hIgG1-Fc) (human); assay: as above
Protocol: as §5, §6

[26] = biological target: T12, TPP-1984 (hTNFRSF12Aaa28-68-CT-His) (human); assay: ELISA, TPP-1984 coated at 1 µg/ml, biotinylated IgG at 0.08 µg/ml (open bar) and 0.3 µg/ml (filled bar), Streptavidin-HRP, Amplex Red
T12 construct: monomeric ectodomain with HIS6 tag; also called TWEAKR(28-68)-HIS; C-terminally truncated TWEAKR ectodomain
T12 chain: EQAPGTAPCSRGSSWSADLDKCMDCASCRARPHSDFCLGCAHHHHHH
Protocol: as §3, §4

[27] = biological target: TPP-2683 (hTNFRSF12Aaa28-80-R56P-hIgG1-Fc) (human); assay: ELISA, TWEAKR-Fc coated 62 ng/ml, biotin-IgG titrated; + means IC50 1 to 150 pM;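 also: biotinylated IgG binding to immobilized TWEAKR-Fc muteins, detected with Streptavidin-HRP and Amplex Red, IC50 derived from fitted dose-response curves of twofold serial dilutions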
Protocol: as §5, §6

[28] = biological target: T7, TPP-599 …; assay: ELISA, 2.5 nM biotinylated TWEAKR-Fc coated, soluble Fab, anti-c-Myc detection

B3: TPP-2084 (antibody, human IgG1, kappa, V domains shown)
VH: EVQLLESGGGLVQPGGSLRLSCAASGFTFSPYPMMWVRQAPGKGLEWVSYISPSGGSTHYADSVKGRFTISRDNSKNTLYLQMNSLRAEDTAVYYCARGGDTYFDYFDYWGQGTLVTVSS
VL: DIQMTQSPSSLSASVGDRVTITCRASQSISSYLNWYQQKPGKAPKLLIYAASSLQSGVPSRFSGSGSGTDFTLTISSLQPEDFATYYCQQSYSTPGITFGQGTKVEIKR
notes: Human IgG1
- binding result [18]: binds
- IL-8 release from A375 cells at 100 ug/ml, % of the activation by 300 ng/ml TWEAK ligand [1]: 113%
- GeoMean of Fluorescence minus GeoMean with the secondary antibody only [2]: 126
- % Inhibition of proliferation, 786-O cells, 96h, 100 ug/ml [3]: 68%
- % Inhibition of proliferation, A253 cells, 72h, 100 ug/ml [3]: > 100%
- % Inhibition of proliferation, HT-29 cells, 24h, 100 ug/ml [3]: 98%
- % Inhibition of proliferation, WiDr cells, 96h, 100 ug/ml [3]: 52%
- GeoMean of Fluorescence minus GeoMean with the secondary antibody only [4]: 1350
- % binding normalized by wt binding signal [5]: < 5%
- Fold induction of Caspase 3/7, 786-O cells, 100 ug/ml [6]: 1.61 fold
- Fold induction of Caspase 3/7, A253 cells, 100 ug/ml [6]: 1.6 fold
- Fold induction of Caspase 3/7, HT-29 cells, 100 ug/ml [6]: 2.59 fold
- Fold induction of Caspase 3/7, NCI-H322 cells, 100 ug/ml [6]: 1.58 fold
- Kd [7]: 27.6 nM
- koff [7]: 0.11 s⁻¹
- kon [7]: 4.2e+06 M⁻¹ s⁻¹
- GeoMean of Fluorescence minus GeoMean with the secondary antibody only [8]: 16300
- binding result [19]: binds
- binding result [20]: binds
- binding result [21]: binds
- binding result [27]: binds
- binding result [23]: binds
- binding result [24]: binds
- binding result [25]: binds
- binding result [26]: binds
- GeoMean of Fluorescence minus GeoMean with the secondary antibody only [9]: 750
- Kd [10]: 17 nM
- Kd [11]: 23.8 nM
- Kd [12]: 21.1 nM
- Kd [13]: 16.2 nM
- Kd [14]: 4 nM
- Kd [15]: 34.2 nM
- GeoMean of Fluorescence minus GeoMean with the secondary antibody only [16]: 199
- GeoMean of Fluorescence minus GeoMean with the secondary antibody only [17]: 1660

B5: TPP-883 Fab variant A51Q of CDR-L2 (Fab, V domains shown)
VH: B3 VH with S57K, T102G
VL: DIQMTQSPATLSASVGDRVTITCRASQSISSYLNWYQQKPGKAPKLLIYQASSLQSGVPSRFSGSGSGTDFTLTISSLQPEDFATYYCQQSYSSPGITFGPGTKVEIK
- binding result [28]: binds

Now from value to binder:

- IL-8 release from A375 cells at 100 ug/ml, % of the activation by 300 ng/ml TWEAK ligand [1]: 134%
- GeoMean of Fluorescence minus GeoMean with the secondary antibody only [2]: 98
- % Inhibition of proliferation, 786-O cells, 96h, 100 ug/ml [3]: 75%
- % Inhibition of proliferation, A253 cells, 72h, 100 ug/ml [3]: > 100%
- % Inhibition of proliferation, HT-29 cells, 24h, 100 ug/ml [3]: 97%
- % Inhibition of proliferation, WiDr cells, 96h, 100 ug/ml [3]: 55%
- GeoMean of Fluorescence minus GeoMean with the secondary antibody only [4]: 1190
- % binding normalized by wt binding signal [5]: < 5%
- Fold induction of Caspase 3/7, 786-O cells, 100 ug/ml [6]: 1.81 fold
- Fold induction of Caspase 3/7, HT-29 cells, 100 ug/ml [6]: 2.44 fold
- Fold induction of Caspase 3/7, NCI-H322 cells, 100 ug/ml [6]: 1.49 fold
- Fold induction of Caspase 3/7, WiDr cells, 100 ug/ml [6]: 1.53 fold
- Kd [7]: 27.6 nM
- koff [7]: 0.11 s⁻¹
- kon [7]: 4.2e+06 M⁻¹ s⁻¹
- GeoMean of Fluorescence minus GeoMean with the secondary antibody only [8]: 17500
- GeoMean of Fluorescence minus GeoMean with the secondary antibody only [9]: 634
- Kd [10]: 25 nM
- Kd [11]: 21.1 nM
- Kd [12]: 20.4 nM
- Kd [13]: 15.4 nM
- Kd [14]: 4.7 nM
- Kd [15]: 22.7 nM
- GeoMean of Fluorescence minus GeoMean with the secondary antibody only [16]: 229
- GeoMean of Fluorescence minus GeoMean with the secondary antibody only [17]: 1630
B1: TPP-1538 (antibody, human IgG1, kappa)
heavy: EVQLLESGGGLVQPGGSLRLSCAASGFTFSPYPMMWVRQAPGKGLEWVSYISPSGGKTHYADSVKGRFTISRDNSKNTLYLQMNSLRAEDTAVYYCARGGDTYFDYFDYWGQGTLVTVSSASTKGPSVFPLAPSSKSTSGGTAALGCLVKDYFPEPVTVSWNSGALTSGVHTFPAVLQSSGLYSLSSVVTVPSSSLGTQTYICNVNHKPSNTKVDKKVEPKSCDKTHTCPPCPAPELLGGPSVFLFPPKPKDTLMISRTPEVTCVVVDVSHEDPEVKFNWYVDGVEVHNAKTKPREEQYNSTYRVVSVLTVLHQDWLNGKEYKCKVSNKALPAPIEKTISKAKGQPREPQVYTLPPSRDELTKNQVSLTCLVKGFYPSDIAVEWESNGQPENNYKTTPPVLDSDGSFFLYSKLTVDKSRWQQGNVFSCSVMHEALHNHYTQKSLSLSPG
light: AQDIQMTQSPATLSASVGDRVTITCRASQSISSYLNWYQQKPGKAPKLLIYAASSLQSGVPSRFSGSGSGTDFTLTISSLQPEDFATYYCQQSYSSPGITFGPGTKVEIKRTVAAPSVFIFPPSDEQLKSGTASVVCLLNNFYPREAKVQWKVDNALQSGNSQESVTEQDSKDSTYSLSSTLTLSKADYEKHKLYACEVTHQGLSSPVTKSFNRGEC
notes: Human IgG1

- binding result [18]: binds
- IL-8 release from A375 cells at 100 ug/ml, % of the activation by 300 ng/ml TWEAK ligand [1]: 93%
- Fold induction of Caspase 3/7, HT-29 cells, 100 ug/ml [6]: 1.81 fold
- Kd [7]: 0.8 nM
- koff [7]: 0.0324 s⁻¹
- kon [7]: 3.84e+07 M⁻¹ s⁻¹
- binding result [19]: binds
- binding result [20]: binds
- binding result [21]: binds
- binding result [22]: binds
- binding result [23]: binds
- binding result [24]: binds
- binding result [25]: binds
- binding result [26]: binds
B2: 136.1(TPP-2194) (antibody, mouse IgG2a, kappa, V domains shown)
VH: EVKLEESGGGLVQPGGSMKLSCVASGFTFNNYWMSWVRQSPEKGLEWLAEIRLKSDNYATHYAESVKGKFTISRDDSKSRLYLQMNNLRAENTGIYYCTGGFADYFDYWGQGTTLTVSS
VL: DIVLTQSPASLTVSLGQRATISCRASQSVSTSSYSYMQWYQQRPGQPPKLLIKYATNLDSGVPARFSGSGSGTDFTLNIHPVEEEDAATYYCQHSWEIPYTFGGGTKLEIKR
notes: Murine IgG2a; variable domains from WO2009/020933 with constant region added

- % binding normalized by wt binding signal [5]: < 5%
- Kd [7]: 28.9 nM
- koff [7]: 0.086 s⁻¹
- kon [7]: 3e+06 M⁻¹ s⁻¹
- Kd [10]: 24.5 nM
- Kd [11]: 16.8 nM
- Kd [12]: 21.2 nM
- Kd [13]: 10.3 nM
- Kd [14]: 4.2 nM
- Kd [15]: 22.4 nM
B4: TPP-2077 (antibody, human IgG1, kappa)
heavy: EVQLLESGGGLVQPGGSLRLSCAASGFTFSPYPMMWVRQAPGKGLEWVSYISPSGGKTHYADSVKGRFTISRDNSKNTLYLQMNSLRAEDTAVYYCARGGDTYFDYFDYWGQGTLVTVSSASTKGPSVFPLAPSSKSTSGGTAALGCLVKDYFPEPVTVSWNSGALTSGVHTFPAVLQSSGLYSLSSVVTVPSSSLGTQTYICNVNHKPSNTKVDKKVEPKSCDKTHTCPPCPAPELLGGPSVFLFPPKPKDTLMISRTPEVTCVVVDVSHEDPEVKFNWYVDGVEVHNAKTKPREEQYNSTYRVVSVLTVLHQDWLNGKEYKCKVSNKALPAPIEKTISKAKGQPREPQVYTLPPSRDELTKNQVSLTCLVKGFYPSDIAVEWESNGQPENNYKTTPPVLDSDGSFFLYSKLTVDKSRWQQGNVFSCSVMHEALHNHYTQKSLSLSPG
light: DIQMTQSPATLSASVGDRVTITCRASQSISSYLNWYQQKPGKAPKLLIYAASSLQSGVPSRFSGSGSGTDFTLTISSLQPEDFATYYCQQSYSSPGITFGPGTKVEIKRTVAAPSVFIFPPSDEQLKSGTASVVCLLNNFYPREAKVQWKVDNALQSGNSQESVTEQDSKDSTYSLSSTLTLSKADYEKHKLYACEVTHQGLSSPVTKSFNRGEC
notes: Human IgG1
